The values below are quoted from earlier work in patent US11229683B2, “Hematopoietic growth factor proteins and analogs thereof and angiotensin converting enzyme inhibitors for treatment of radiation exposure” (priority 2015, dated 2022).

Read-outs that look alike come from different tables or passages of the source.

The test system of one data set is irradiated monkeys. The conditions noted are these: cited from earlier work; for survival versus vehicle: daily sc treatment started 48 h post-TBI.
The test system of data set [1] is chemotherapy (cyclophosphamide)-treated rats. The conditions noted are these: single injection; cited from earlier work.

B1: G-CSF: human G-CSF (filgrastim (Neupogen, Amgen, Inc.) (protein, listed as Homo sapiens)
chain: TPLGPASSLPQSFLLKCLEQVRKIQGDGAALQEKLCATYKLCHPEELVLLGHSLGIPWAPLSSCPSQALQLAGCLSQLHSGLFLYQGLLQALEGISPELGPTLDTLQLDVADFATTIWQQMEELGMAPALQPTQGAMPAFASAFQRRAGGVLVASHLQSFLEVSYRVLRHLAQP
For B1, the “60-day survival of rhesus monkeys” value in the data set with irradiated monkeys (daily sc 0.01 mg/kg/day for 16-23 days, started 24 h post-TBI) is “increased 60-day survival”. Moreover, in the data set with irradiated monkeys (daily sc beginning 24 h post-TBI for about 16 days, placebo 50%), the “survival of irradiated monkeys” value is on record as 80%. The results for the survival versus vehicle result in the data set on irradiated monkeys and in the data set with irradiated monkeys (listed as filgrastim) were “did not increase survival” and “but not when administered at 48 h post-TBI”, respectively. The recovery from neutropenia entry in data set [1] is reported as “ineffective”.
